{"source": "patent US20180142016A1"}
{"molecular_target": "human ROR1 extracellular domain (ECD) protein (human) (UniProt Q01973)", "sequence (Q01973 30-406 limits assumed)": "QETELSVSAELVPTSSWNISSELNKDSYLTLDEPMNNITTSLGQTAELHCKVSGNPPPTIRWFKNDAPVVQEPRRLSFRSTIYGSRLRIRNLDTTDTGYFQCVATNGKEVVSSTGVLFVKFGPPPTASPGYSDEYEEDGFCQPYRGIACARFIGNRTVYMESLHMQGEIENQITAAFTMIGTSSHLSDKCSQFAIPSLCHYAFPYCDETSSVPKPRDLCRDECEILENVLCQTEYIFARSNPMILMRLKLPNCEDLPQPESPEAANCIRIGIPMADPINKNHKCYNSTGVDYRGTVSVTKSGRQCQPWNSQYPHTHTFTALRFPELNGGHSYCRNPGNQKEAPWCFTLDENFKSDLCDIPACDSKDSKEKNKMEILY", "test": "competitive phage ELISA, soluble vs coated ROR1", "units": {"IC50": "nM"}}
{"binder": "P601-153 (scFv, from another filing, V domains shown) VH: QMQLVQSGAEVKKPGASVKVSCKASGYTFTSYYMHWVRQAPGQGLEWMGIINPSGGSTSYAQKFQGRVTMTRDTSTSTVYMELSSLRSEDTAVYYCARGGYTGWSPSDPWGQGTLVTVSS VL: QSALTQPASVSGSPGQSITISCTGTSSDVGGYNYVSWYQQHPGKAPKFMIYDVSKRPSGVSNRFSGSKSGNTASLTISGLQAEDEADYYCGSFTSSITYVFGTGTKVTVL", "IC50": 1.53}
{"binder": "P601-149 (scFv, from another filing, V domains shown) VH: EAQLVESGGGLVKPGGSLRLSCAASGFTFSDYYMGWVRQAPGKGLKWLSYISDRAHTIYDTDSVKGRFTISRDDAKSSLYLRMNNLRVEDTAVYYCARAVGAGEGFDYWGQGTLVTVSS VL: DIQLTQSPSSLSASVGDRVTITCQASQDVRNYLNWYQQKPGKAPNLLIYDATNLESGVPSRFSGSGSGTDFTFTISSLQPEDFATYYCQQYDNLPLSFGGGTKVEIK", "IC50": 2.76}
{"binder": "P601-128 (scFv, from another filing, V domains shown) VH: EVQLVQSGAEVKKPGESLKISCKGSGYSFSRYWIGWVRQMPGKGLEWMGIIYPRDSDTRYSPSFQGQVTISADKSISTAYLQWSSLKASDTAMYYCATPVVTAGAFDIWGQGTMVTVSS VL: DIQMTQSPSSVSASVGDRVTITCRASQGISSWLAWYQQKPGKAPKLLIYAASSLQSGVPSRFSGSGSGTDFTLTISSLQPEDFATYYCQQANSFPLTFGGGTKVEIK", "IC50": 263}
